Test results reported in publication PMC4092090, “Investigation of a MMP-2 Activity-Dependent Anchoring Probe for Nuclear Imaging of Cancer” (PLoS ONE, 2014).
Where two headings read alike, the source gives them in different places.

Experiments:
[1] = test system: HT1080 tumor bearing mice; design: species or system mouse (Balb/c nu-nu); conditions: mouse, in vivo, iv; for Radioactivity biodistribution, Blood / Radioactivity biodistribution, Heart / Radioactivity biodistribution, Intestine / Radioactivity biodistribution, Kidneys / Radioactivity biodistribution, Liver / Radioactivity biodistribution, Lung / Radioactivity biodistribution, Muscle / Radioactivity biodistribution, Pancreas / Radioactivity biodistribution, Spleen / Radioactivity biodistribution, Stomach / Radioactivity biodistribution, Tumor / T/B (tumor to blood ratio): 37 kBq
Protocol: Female Balb/c nu-nu mice (5 weeks old, Japan SLC, Inc., Shizuoka, Japan) were housed under a 12-h light/12-h dark cycle and given free access to food and water. HT1080 cells (5×10^6 cells/100 μl PBS (-)/mouse) were subcutaneously inoculated into the right hind leg of Balb/c nu-nu mice. Animals were used for experiments two weeks after inoculation when the mean tumor size was 5.7±2.2 mm along the major axis. […]3000 and […] (37 kBq, 100 μl in PBS including 3% bovine serum albumin and 0.1% Tween 80) were injected intravenously into the tail vein of tumor bearing mice. The mice were sacrificed at various post-injection time points (n = 3 for each time point), and the organs of interest including the tumor tissues were collected for determination of the weights. The radioactivity of each sample was measured with a NaI well-type scintillation counter. From fitting to the two phase decay curves for blood radioactivity data analyzed by GraphPad Prism 6 (GraphPad Software, San Diego, CA), whole body pharmacokinetic parameters such as blood half-lives, distribution volume, mean residence time and total clearance were calculated for each of the probes and the values compared. Simple pharmacokinetic analysis using a single tissue compartment model was applied to the biodistribution data to calculate rate constants (K1 and k2) for radioactivity transfer from blood to tumor and clearance from tumor to blood by PMOD version 3.2. In addition, MDAP3000 (7.4 MBq in 200 μl) was injected intravenously into the tail vein of tumor bearing mice for metabolite analysis in tumors excised 3, 6, and 24 hr post injection (n = 2 each). Tumor homogenates were prepared on ice and insoluble material was removed by centrifugation after methanol treatment. The resulting supernatant was analyzed by RP-HPLC.

[2] = Effective dose estimation (OLINDA); conditions: estimated from mouse biodistribution data (non-decay-corrected time radioactivity curves) with OLINDA
From the text: The effective dose of MDAP3000 was estimated using the area under the non-decay-corrected time radioactivity curves generated from the biodistribution data for each organ with the standard quantitation platform included in Organ Level Internal Dose Assessment software (OLINDA, Vanderbilt University).

With “Palmitoyl-Dap(p-SCN-Bn-DTPA-^111In)-10-Adc-Gly-Pro-Leu-Gly-Val-Arg-Gly-Lys(ivDde)-PEG3000 [MDAP3000]” the “Blood clearance (in words)” value [1] was “rapid blood clearance”, the “Tumor accumulation (in words)” value [1] was “high tumor accumulation” and the “Radioactivity biodistribution, Blood” value ([1]; 0.25 h) was 44.98±2.53 % injected dose per gram. For the same substance, the “Radioactivity biodistribution, Heart” value ([1]; 0.25 h) was 9.26±0.86 % injected dose per gram, the “Radioactivity biodistribution, Intestine” value ([1]; 0.25 h) was 3.59±0.24 % injected dose per gram and the “Radioactivity biodistribution, Kidneys” value ([1]; 0.25 h) was 11.85±0.84 % injected dose per gram. The “Radioactivity biodistribution, Liver” value ([1]; 0.25 h) was 18.83±1.38 % injected dose per gram, the “Radioactivity biodistribution, Lung” value ([1]; 0.25 h) was 20.44±4.77 % injected dose per gram and the “Radioactivity biodistribution, Muscle” value ([1]; 0.25 h) was 1.72±0.76 % injected dose per gram. The “Radioactivity biodistribution, Pancreas” value ([1]; 0.25 h) was 3.91±0.33 % injected dose per gram, the “Radioactivity biodistribution, Spleen” value ([1]; 0.25 h) was 6.53±0.34 % injected dose per gram and the “Radioactivity biodistribution, Stomach” value ([1]; 0.25 h) was 0.48±0.04 % injected dose per organ. The “Radioactivity biodistribution, Tumor” value ([1]; 0.25 h) was 3.60±0.17 % injected dose per gram, the “T/B (tumor to blood ratio)” value ([1]; 0.25 h) was 0.08±0.01 and the “Radioactivity biodistribution, Blood” value ([1]; 1 h) was 30.48±1.67 % injected dose per gram. For the same substance, the “Radioactivity biodistribution, Heart” value ([1]; 1 h) was 8.20±0.74 % injected dose per gram, the “Radioactivity biodistribution, Intestine” value ([1]; 1 h) was 5.85±0.11 % injected dose per gram and the “Radioactivity biodistribution, Kidneys” value ([1]; 1 h) was 10.60±0.38 % injected dose per gram. The “Radioactivity biodistribution, Liver” value ([1]; 1 h) was 18.45±0.81 % injected dose per gram, the “Radioactivity biodistribution, Lung” value ([1]; 1 h) was 15.92±0.58 % injected dose per gram and the “Radioactivity biodistribution, Muscle” value ([1]; 1 h) was 1.27±0.20 % injected dose per gram. The “Radioactivity biodistribution, Pancreas” value ([1]; 1 h) was 4.35±0.74 % injected dose per gram, the “Radioactivity biodistribution, Spleen” value ([1]; 1 h) was 5.65±0.98 % injected dose per gram and the “Radioactivity biodistribution, Stomach” value ([1]; 1 h) was 0.69±0.21 % injected dose per organ. The “Radioactivity biodistribution, Tumor” value ([1]; 1 h) was 5.49±0.53 % injected dose per gram, the “T/B (tumor to blood ratio)” value ([1]; 1 h) was 0.18±0.03 and the “Radioactivity biodistribution, Blood” value ([1]; 3 h) was 15.33±0.81 % injected dose per gram. For the same substance, the “Radioactivity biodistribution, Heart” value ([1]; 3 h) was 6.70±0.59 % injected dose per gram, the “Radioactivity biodistribution, Intestine” value ([1]; 3 h) was 13.13±1.73 % injected dose per gram and the “Radioactivity biodistribution, Kidneys” value ([1]; 3 h) was 11.89±0.76 % injected dose per gram. The “Radioactivity biodistribution, Liver” value ([1]; 3 h) was 22.83±3.72 % injected dose per gram, the “Radioactivity biodistribution, Lung” value ([1]; 3 h) was 9.72±1.02 % injected dose per gram and the “Radioactivity biodistribution, Muscle” value ([1]; 3 h) was 1.49±0.15 % injected dose per gram. The “Radioactivity biodistribution, Pancreas” value ([1]; 3 h) was 5.25±0.57 % injected dose per gram, the “Radioactivity biodistribution, Spleen” value ([1]; 3 h) was 5.41±0.64 % injected dose per gram and the “Radioactivity biodistribution, Stomach” value ([1]; 3 h) was 1.17±0.82 % injected dose per organ. The “Radioactivity biodistribution, Tumor” value ([1]; 3 h) was 5.49±0.36 % injected dose per gram, the “T/B (tumor to blood ratio)” value ([1]; 3 h) was 0.36±0.04 and the “Radioactivity biodistribution, Blood” value ([1]; 6 h) was 8.33±0.58 % injected dose per gram. For the same substance, the “Radioactivity biodistribution, Heart” value ([1]; 6 h) was 5.64±0.79 % injected dose per gram, the “Radioactivity biodistribution, Intestine” value ([1]; 6 h) was 14.08±2.39 % injected dose per gram and the “Radioactivity biodistribution, Kidneys” value ([1]; 6 h) was 11.40±1.18 % injected dose per gram. For the same substance, the “Radioactivity biodistribution, Liver” value ([1]; 6 h) was 17.61±2.53 % injected dose per gram, the “Radioactivity biodistribution, Lung” value ([1]; 6 h) was 5.56±0.75 % injected dose per gram and the “Radioactivity biodistribution, Muscle” value ([1]; 6 h) was 1.43±0.28 % injected dose per gram. For the same substance, the “Radioactivity biodistribution, Pancreas” value ([1]; 6 h) was 4.97±1.31 % injected dose per gram, the “Radioactivity biodistribution, Spleen” value ([1]; 6 h) was 4.94±1.51 % injected dose per gram and the “Radioactivity biodistribution, Stomach” value ([1]; 6 h) was 0.97±0.46 % injected dose per organ. For the same substance, the “Radioactivity biodistribution, Tumor” value ([1]; 6 h) was 7.31±1.12 % injected dose per gram, the “T/B (tumor to blood ratio)” value ([1]; 6 h) was 0.88±0.14 and the “Radioactivity biodistribution, Blood” value ([1]; 24 h) was 1.61±0.27 % injected dose per gram. For the same substance, the “Radioactivity biodistribution, Heart” value ([1]; 24 h) was 3.78±0.39 % injected dose per gram, the “Radioactivity biodistribution, Intestine” value ([1]; 24 h) was 3.70±1.06 % injected dose per gram and the “Radioactivity biodistribution, Kidneys” value ([1]; 24 h) was 10.81±2.35 % injected dose per gram. The “Radioactivity biodistribution, Liver” value ([1]; 24 h) was 10.51±0.89 % injected dose per gram, the “Radioactivity biodistribution, Lung” value ([1]; 24 h) was 2.50±0.44 % injected dose per gram and the “Radioactivity biodistribution, Muscle” value ([1]; 24 h) was 1.02±0.16 % injected dose per gram. The “Radioactivity biodistribution, Pancreas” value ([1]; 24 h) was 3.92±0.68 % injected dose per gram, the “Radioactivity biodistribution, Spleen” value ([1]; 24 h) was 3.92±0.24 % injected dose per gram and the “Radioactivity biodistribution, Stomach” value ([1]; 24 h) was 0.54±0.07 % injected dose per organ. For the same substance, the “Radioactivity biodistribution, Tumor” value ([1]; 24 h) was 4.25±0.79 % injected dose per gram, the “T/B (tumor to blood ratio)” value ([1]; 24 h) was 2.74±0.89 and the Effective dose [2] was 5.08×10^−2 mSv/MBq.
